The test deals with peptide on cattle MR1 (cattle). Kind of test: data from (80); method not given; cattle MR1 without riboflavin-based antigen.

By Kd is commonly meant the free concentration of one partner at which half of the binding sites on the other are occupied at equilibrium, for simple one-to-one binding. The low end stands for higher affinity, the high end for lower affinity.

A-F7 MAIT TCR: the Kd worked out at 30 µM.
